Measurements from the supplement of paper PMC9732359.
± gives the uncertainty stated by the source.

Experiment: protein stability index of a GFP-peptide fusion (yeast GPS) (PSI 1-4); higher = more stable; sorted into four equal gates, so the index is relative within each strain
Method in brief: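 Plasmids isolated from each sorting gate were PCR-amplified and Illumina-sequenced, and barcodes assigned the reads to strains. The gates, four of equal size, were set by GFP/Cherry fluorescence ratio on mid-log cultures in leucine-free medium. These cultures were yeast carrying a pooled library of tiled 17-residue yeast protein peptides fused downstream of GFP on a plasmid that also expresses Cherry. The protein stability index is the sum of every gate's read frequency times its gate number.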

Row | Sequence | protein stability index (doa10∆) | protein stability index (pdr5∆) | protein stability index (san1∆) | protein stability index (ubr1∆)
1 | DQRDELLEQKKSIINSQ [ITC1] | 3.08 ± 0.085 | 3.1 ± 0.075 | 3.11 ± 0.062 | 3.19 ± 0.068
2 | NFNSSAPIADDNHSGDA [DSN1] | 1.92 ± 0.081 | 2.8 ± 0.1 | 2.45 ± 0.09 | 2.68 ± 0.067
3 | FKLFNKYRPETAAEKKE [RPL8A] | 2.56 ± 0.079 | 2.64 ± 0.083 | 2.5 ± 0.083 | 2.74 ± 0.071
4 | EDNNDAVNSIMALKFVS [ECM29] | 3.15 ± 0.1 | 3.3 ± 0.077 | 3.03 ± 0.079 | 3.32 ± 0.07
5 | DGYQLFHAEPSGTFYRY [PUP2] | 2.14 ± 0.11 | 1.6 ± 0.095 | 2.64 ± 0.062 | 1.5 ± 0.076
6 | ETQPGCNEEQTLEAKIG [RPO31] | 3.21 ± 0.073 | 3.33 ± 0.069 | 2.96 ± 0.057 | 3.24 ± 0.053
7 | KVISEILTKEVQGSTLA [RPS1A] | 2.29 ± 0.026 | 2.336 ± 0.023 | 2.29 ± 0.03 | 2.194 ± 0.018
8 | DANPSSQIIARNEEILR [SMC2] | 2.94 ± 0.08 | 2.79 ± 0.083 | 3.21 ± 0.076 | 2.76 ± 0.11
9 | SVLLQQLLTPGSKISSN [YGL172W/NUP49] | 2.46 ± 0.093 | 2.83 ± 0.089 | 3.09 ± 0.099 | 2.56 ± 0.14
10 | KKSGSLTFNSKNIQSKD [FAS2] | 3.2 ± 0.12 | 3.29 ± 0.13 | 3.26 ± 0.13 | 3.27 ± 0.075
11 | VKGTNISEKDLVPKRCL [RPO31] | 2.63 ± 0.12 | 3.39 ± 0.13 | 3.42 ± 0.082 | 3.12 ± 0.09
12 | TNVNVKIKDVQQQIESN [SMC3] | 3.19 ± 0.088 | 3.17 ± 0.081 | 3.18 ± 0.074 | 2.79 ± 0.1
13 | RLLEKSELPDIYSRDIG [SNF2] | 3.12 ± 0.14 | 3.37 ± 0.13 | 2.96 ± 0.084 | 3.21 ± 0.17
14 | THIAESAKEIAKASGCD [MCD1] | 3.16 ± 0.14 | 3.4 ± 0.19 | 3.15 ± 0.049 | 3.34 ± 0.075
15 | GNPGRIRVLFKENGQLI [SEC65] | 2.38 ± 0.055 | 2.24 ± 0.072 | 2.33 ± 0.11 | 2.44 ± 0.059
16 | IFHPMIHYSWSFILYYR [YML103C/NUP188] | 1.74 ± 0.051 | 1.68 ± 0.032 | 1.69 ± 0.063 | 1.98 ± 0.048
17 | VITIKSRIRVKIEGCIS [RPB7] | 2.04 ± 0.082 | 2.13 ± 0.056 | 1.88 ± 0.081 | 2.07 ± 0.064
18 | NMEKEKDRIIDERTKEF [YIL149C/MLP2] | 3.11 ± 0.078 | 2.93 ± 0.11 | 3.1 ± 0.074 | 3.16 ± 0.058
19 | SAAMSIDKLSDVVMKAT [PRP8] | 2.46 ± 0.048 | 2.6 ± 0.046 | 2.45 ± 0.047 | 2.37 ± 0.042
20 | EFENKFQNSYKPALKVS [YMR129W/POM152] | – | 3.11 ± 0.22 | 3.04 ± 0.2 | –
21 | GFIFTSMILEAISTDKI [RRI2] | 1.35 ± 0.082 | 1.27 ± 0.072 | 1.26 ± 0.13 | 1.51 ± 0.083
22 | KERLTKEAAAIAEGKSK [RPL8B] | 2.19 ± 0.05 | 2.33 ± 0.056 | 2.02 ± 0.073 | 2.38 ± 0.033

Row | Sequence | protein stability index (doa10∆) | protein stability index (pdr5∆) | protein stability index (san1∆) | protein stability index (ubr1∆)
23 | LLKHPFKAIHGSQLRLS [YCS4] | 1.67 ± 0.046 | 1.62 ± 0.043 | 1.64 ± 0.072 | 1.83 ± 0.025
24 | VSEDLLDERGHEKIEDE [RPN4] | 3.36 ± 0.1 | 3.53 ± 0.15 | 3.71 ± 0.08 | 3.45 ± 0.11
25 | STKSNKTRNPLTHSTPK [RPL8A] | 2.44 ± 0.29 | 1.95 ± 0.14 | – | 1.88 ± 0.15
26 | ALGQDTEKMEEQLDLLS [MED11] | 3.03 ± 0.099 | 3.09 ± 0.082 | 2.99 ± 0.073 | 3.31 ± 0.064
27 | FSSSVSLSYMAFPNASK [RRP40] | 1.65 ± 0.078 | 1.76 ± 0.074 | 1.65 ± 0.12 | 1.72 ± 0.072
28 | AVTHNLYYDEDINVESL [PUP2] | 3.16 ± 0.11 | 3.25 ± 0.088 | 3.05 ± 0.18 | 2.89 ± 0.06
29 | ITFLQTLYIGNTANGRP [ECM29] | 2.04 ± 0.085 | 2.73 ± 0.09 | 2.6 ± 0.16 | 1.97 ± 0.12
30 | VHNTNSFIISSLDTLEL [NUT1] | 2 ± 0.076 | 2.34 ± 0.067 | 1.99 ± 0.086 | 2.54 ± 0.07
31 | QNDTPMFKLGNFESPVL [YLR018C/POM34] | 2.08 ± 0.066 | 2.48 ± 0.059 | 2.62 ± 0.05 | 2.29 ± 0.034
32 | PRQRMEEVVSNDEGVWD [PRP8] | 3.45 ± 0.068 | 3.45 ± 0.056 | 2.87 ± 0.06 | 3.06 ± 0.048
33 | FPPGVIGIDEGSDEAYV [RPC40] | 3.59 ± 0.091 | 3.41 ± 0.085 | 3.29 ± 0.077 | 3.51 ± 0.056
34 | AKDKEIYNKMIGVLNNS [RPN13] | 2.6 ± 0.084 | 2.94 ± 0.1 | 2.72 ± 0.053 | 2.93 ± 0.065
35 | GNSGVVRATFRNNLPAK [RPL33A] | 2.88 ± 0.085 | 3.17 ± 0.12 | 3.19 ± 0.099 | 3.22 ± 0.067
36 | DLLNAASIESADILCPL [IRR1] | 3.05 ± 0.2 | 2.24 ± 0.13 | 2.92 ± 0.12 | 2.79 ± 0.058
37 | KGKYRNRRWTQRRGPLV [RPL4A] | 2.97 ± 0.17 | 3.29 ± 0.18 | – | –
38 | TQVYKLGLAKSVHHARV [RPS9A] | 1.94 ± 0.089 | 1.48 ± 0.053 | 1.55 ± 0.14 | 1.24 ± 0.066
39 | TPNVREEKQKSYKFPRG [PUP1] | 3.29 ± 0.13 | 2.74 ± 0.12 | 3.13 ± 0.095 | –
40 | NENPYNNGVSNLWKNIF [COR1] | – | 1.96 ± 0.12 | 2.01 ± 0.15 | 1.86 ± 0.07
41 | ARKYLQTRWGLPSGRQD [FAS2] | 2.54 ± 0.087 | 2.09 ± 0.12 | 2.12 ± 0.14 | 3.16 ± 0.11
42 | SSNLYETIIEADKSLPS [YJR042W/NUP85] | 2.76 ± 0.054 | 2.97 ± 0.052 | 2.94 ± 0.039 | 2.96 ± 0.061
43 | SPIVNVLEDVYRCFAQL [RRI2] | 2.53 ± 0.18 | 3.19 ± 0.17 | 2.9 ± 0.14 | 3.09 ± 0.083
